Here are results for 29 molecules from patent US7026443.

Read-outs that look alike come from different tables or passages of the source.

In assay [1] the target is HLA-B*3501 (human). Kind of assay: competition with 125I-labelled standard peptide for purified HLA, gel filtration; relative binding. On the technique in general: Size exclusion chromatography separates by hydrodynamic size, large species first.
In assay [2] the target is HLA-B*5301 (human). The description is as above.
For assay [3], the target named is HLA-B*5101 (human). The description is as above.
Assay [4] addresses HLA-B*0702 (human). The description is as above.
The target of assay [5] is HLA-A*0206 (human). Nature of the assay: competition with 125I-labelled standard peptide on purified HLA, gel filtration. To be noted: remark: other sources report otherwise.
The target of assay [6] is HLA-A*0201 (human). The description is as above. To be noted: remark: other sources report otherwise.
Assay [7] has as its target HLA-A*0203 (human). Described as above. To be noted: remark: other sources report otherwise.
In assay [8] the target is HLA-A*0201 (purified HLA class I molecule) (human). Nature of the assay: competition assay: unlabeled peptide inhibits binding of a 125I-labeled standard probe peptide to purified HLA-A*0201, gel filtration read-out.
Assay [9] concerns the target HLA-A*0301 (human). Kind of assay: competition with 125I-labelled standard peptide for purified HLA-A*0301, gel filtration.
The target in assay [10] is HLA-A*1101 (human). Kind of assay: inhibition of 125I-labeled standard peptide binding to purified HLA-A*1101, gel filtration.
Assay [11] concerns the target HLA-A*0301 (human). Kind of assay: competition with a 125I-labelled standard peptide for purified HLA-A*0301, gel filtration; value relative to the standard peptide.
Assay [12] has as its target HLA-A*0201 (purified HLA class I molecule) (human). Nature of the assay: competition with 125I-labeled standard peptide for purified HLA-A*0201, gel filtration; ratio to the standard peptide.
For assay [13], the target named is HLA-A*2402 (human). Kind of assay: inhibition of 125I-labelled standard peptide binding to purified HLA-A*2402, gel filtration.
Assay [14] deals with HLA-A*0201 (human). Kind of assay: competition with a 125I-labeled standard peptide for purified HLA-A*0201, gel filtration; ratio to the standard peptide.
Assay [15] concerns the target HLA-A*1101 (human). Nature of the assay: competition with 125I-labelled standard probe peptide for purified HLA-A*1101, gel filtration.
Assay [16] deals with HLA-A*0301 (human). Nature of the assay: competition of unlabeled peptide against 125I-labeled standard probe peptide for purified HLA-A*0301, gel filtration.
Assay [17] deals with purified HLA-A*0201 molecules (human).
In assay [18] the target is HLA-A*0101 (human).
Assay [19] has as its target HLA-A*0301 (human).
Assay [20] has as its target HLA-A*3301 (human).
The target of assay [21] is HLA-A*0301 (human). This is another data set of the same source.
Assay [22] concerns the target HLA-A*6801 (human).
For assay [23], the target named is HLA-A*1101 (human).
In assay [24] the target is HLA-A*3101 (human).
The target of assay [25] is purified HLA-A*0201 molecules (human). Nature of the assay: competition with 125I-labelled standard probe peptide for purified HLA-A*0201; bound and free peptide separated by gel filtration.
Assay [26] concerns the target HLA-A*1101 (human). Nature of the assay: competition with 125I-radiolabeled standard probe peptide for purified HLA-A*1101, gel filtration.
Assay [27] concerns the target HLA-A*0301 (human). Kind of assay: competition against a 125I-labeled standard probe peptide for purified HLA-A*0301, gel filtration; relative binding.
For assay [28], the target named is HLA-A*0301 (human). Nature of the assay: competition with 125I-labeled standard probe peptide for purified HLA, gel filtration.
The target of assay [29] is HLA-A*1101 (human). The description is as above.
The target of assay [30] is HLA-A*1101 (human). Kind of assay: competition with a 125I-labeled standard probe peptide for purified HLA-A*1101, gel filtration.
Assay [31] has as its target HLA-A*1101 (human). Nature of the assay: competition binding assay; purified HLA-A*1101, unlabeled peptide against 125I-labeled probe peptide, gel filtration.
Assay [32] addresses HLA-A*0301 (human). Nature of the assay: competition of unlabeled peptide with 125I-labeled standard probe peptide for purified HLA-A*0301, gel filtration.
The target of assay [33] is HLA-A*0101 (human). Kind of assay: competition with 125I-labelled standard peptide for purified HLA-A*0101, bound and free separated by gel filtration.
For assay [34], the target named is HLA-A*0301 (human). Kind of assay: competition with 125I-labeled standard peptide for purified HLA-A*0301, gel filtration.
The target of assay [35] is HLA-A*0301 (human). Kind of assay: competition with 125I-labelled probe peptide for purified HLA, gel filtration. To be noted: scale: ratio.
In assay [36] the target is HLA-A*1101 (human). The description is as above. To be noted: scale: ratio.
Assay [37] deals with HLA-A*1101 (human). Nature of the assay: competition with 125I-labeled standard peptide for purified HLA-A*1101, gel filtration. To be noted: scale: ratio.
The target in assay [38] is HLA-A*0201 (human). Kind of assay: competition with a 125I-labelled probe peptide for purified HLA-A*0201, gel filtration.

B1: HPV45 E1 110 … (B07 supermotif peptide, 9 amino acids) (peptide)
peptide: SPRLQEISL
modifications: not checked
Consider B1, for which the binding affinity ratio (IC50 of standard peptide / IC50 of test peptide) was 0.0008 in [1], 0.0002 in [2], 0.0005 in assay [3] and 0.62 in [4].

B2: HPV16 E7 86 TLGIVCPI (peptide)
peptide: TLGIVCPI
modifications: not checked
For the molecule B2, the binding affinity ratio (IC50 of standard peptide / IC50 of test peptide) amounted to 0.54 in assay [5], 0.15 in [6] and 0.0005 in [7].

B3: HPV31 E1 peptide … (position 542, 9 amino acids) (peptide)
peptide: LLITSNINA
modifications: not checked
Consider B3, for which the relative binding ratio (IC50 of standard peptide / IC50 of test peptide) in assay [8] was found to be 0.0022.

B4: HPV16 E1 204 … (peptide)
peptide: KAAMLAKFK
modifications: not checked
Take B4: the binding affinity ratio (IC50 of standard peptide / IC50 of test peptide) (ratio to standard peptide) in [9] amounted to 0.11. Besides, the relative binding ratio (IC50 of standard peptide / IC50 of test peptide) in assay [10] came out at 0.18.

B5: HPV45 E1 peptide … (position 327, 9 amino acids) (peptide)
peptide: GDTPEWIQR
modifications: not checked
On to B5, for which the relative binding ratio (IC50 of standard peptide / IC50 of test peptide) in assay [11] is 0.0008.

B6: HPV45 E1 peptide … (position 259, 10 amino acids) (peptide)
peptide: CLDCKWGVLI
modifications: not checked
With B6, the relative binding ratio (IC50 of standard peptide / IC50 of test peptide) in [12] was 0.0002.

B7: … (HPV18 E7, position 63, 10 amino acids) (peptide)
peptide: CMCCKCEARI
modifications: not checked
As to B7, in [13], the relative binding ratio (IC50 of standard peptide / IC50 of test peptide) is 0.0001.

B8: HPV18 E1 peptide … (position 570, 9 amino acids) (peptide)
peptide: LLTTNIHPA
modifications: not checked
On to B8, for which the relative binding ratio (IC50 of standard peptide / IC50 of test peptide) in assay [14] amounted to 0.18.

B9: HPV31 E6 peptide … (position 109, 9 amino acids) (peptide)
peptide: PLCPEEKQR
modifications: not checked
Turning to B9, the relative binding ratio (IC50 of standard peptide / IC50 of test peptide) (ratio to standard peptide) in assay [15] was 0.0005; in [16], 0.0002.

B10: HPV31 E1 peptide … (position 246, 9 amino acids) (peptide)
peptide: SLACSWGMV
modifications: not checked
As to B10, the relative binding ratio (IC50 of standard peptide / IC50 of test peptide) in assay [17] amounted to 0.082.

B11: HPV16 E6 80 … (peptide)
peptide: ISEYRHYCY
modifications: not checked
Turning to B11, in assay [18] (remark: other sources report otherwise), the binding affinity ratio (IC50 of standard peptide / IC50 of test peptide) stood at 0.31.

B12: HPV16 E1 272 … (peptide)
peptide: GMVVLLLVR
modifications: not checked
In the case of B12, the binding affinity ratio (IC50 of standard peptide / IC50 of test peptide) (ratio to standard peptide) in assay [9] worked out at 0.0036. Moreover, in [10], the relative binding ratio (IC50 of standard peptide / IC50 of test peptide) amounted to 0.0082.

B13: HPV16 E1 peptide … (position 405, 9 amino acids) (peptide)
peptide: CATMCRHYK
modifications: not checked
Turning to B13, the relative binding ratio (IC50 of standard peptide / IC50 of test peptide) (ratio to standard peptide) in assay [19] worked out at 0.0012. For the same molecule, the binding affinity ratio (IC50 of standard peptide / IC50 of test peptide) in assay [20] worked out at 0.01; in [21], 0.0012; in [22], 0.0056; in assay [23], 0.0098; in assay [24] it was 0.0077.

B14: HPV16 E1 360 peptide … (peptide)
peptide: MVQWAYDNDI
modifications: not checked
As to B14, the binding affinity ratio (IC50 of the standard peptide / IC50 of the test peptide) in assay [25] worked out at 0.0001.

B15: HPV31 E6 peptide … (position 110, 9 amino acids) (peptide)
peptide: LCPEEKQRH
modifications: not checked
Regarding B15, the relative binding ratio (IC50 of standard peptide / IC50 of test peptide) (ratio to standard peptide) in assay [15] was determined as 0.0001; in [16] it was 0.0003.

B16: … (HPV18 E6, position 80, 11 amino acids) (peptide)
peptide: HYSDSVYGDTL
modifications: not checked
Consider B16, for which the relative binding ratio (IC50 of standard peptide / IC50 of test peptide) in assay [13] was found to be 0.0069.

B17: HPV18 E1 peptide … (position 536, 9 amino acids) (peptide)
peptide: WTYFDTYMR
modifications: not checked
With B17, the relative binding ratio (IC50 of standard peptide / IC50 of test peptide) in assay [26] was found to be 0.012. Further, the binding affinity ratio (IC50 of the standard peptide / IC50 of the test peptide) in [27] came to 0.0005.

B18: HPV16 E7 11 … (peptide)
peptide: YMLDLQPETT
modifications: not checked
As to B18, the binding affinity ratio (IC50 of standard peptide / IC50 of test peptide) in assay [5] came to 1.7; in [6], 0.15; in [7], 0.0001.

B19: HPV31 E1 peptide … (position 536, 9 amino acids) (peptide)
peptide: QLKCPPLLI
modifications: not checked
For the molecule B19, the relative binding ratio (IC50 of standard peptide / IC50 of test peptide) in [17] is 0.0049.

B20: HPV18 E1 peptide … (position 19, 9 amino acids) (peptide)
peptide: YVQAIVDKK
modifications: not checked
For the molecule B20, the results for the relative binding ratio (IC50 of standard peptide / IC50 of test peptide) (ratio to standard peptide) in [28] and in [29] were 0.0005 and 0.029, respectively. The relative binding ratio (IC50 of standard peptide / IC50 of test peptide) in assay [26] was determined as 0.029. For the same molecule, the binding affinity ratio (IC50 of the standard peptide / IC50 of the test peptide) in [27] came out at 0.0005.

B21: HPV16 E6 peptide … (position 53, 9 amino acids; SEQ ID NO: 40120) (peptide)
peptide: AFRDLCIVY
modifications: not checked
Take B21: in [30], the relative binding ratio (IC50 of standard peptide / IC50 of test peptide) stood at 0.0001.

B22: HPV31 E1 position 10 peptide … (SEQ ID NO: 41699) (peptide)
peptide: EGTGCNGWFY
modifications: not checked
In the case of B22, in assay [31], the binding affinity ratio (relative to the standard peptide) was determined as 0.0002.

B23: HPV45 E1 peptide … (position 265, 9 amino acids) (peptide)
peptide: GVLILALLR
modifications: not checked
B23: the relative binding ratio (IC50 of standard peptide / IC50 of test peptide) in assay [11] is 0.0058.

B24: HPV45 E1 267-275 peptide … (SEQ ID NO: 37427) (peptide)
peptide: LILALLRYK
modifications: not checked
As to B24, in assay [32], the relative binding ratio (IC50 of the standard peptide / IC50 of the test peptide) worked out at 0.27.

B25: HPV18 E6 77 peptide … (peptide)
peptide: ELRHYSDSVY
modifications: not checked
For the molecule B25, the relative binding ratio (IC50 of the standard peptide / IC50 of the test peptide) (ratio to standard peptide) in assay [33] stood at 0.0037.

B26: HPV16 E1 peptide … (position 509, 9 amino acids) (peptide)
peptide: WLQPLADAK
modifications: not checked
Regarding B26, the relative binding ratio (IC50 of standard peptide / IC50 of test peptide) in [34] turned out to be 0.0005. For the same molecule, the binding affinity ratio (relative to standard peptide) in assay [35] was 0.0005; in assay [36] it was 0.0002. The relative binding ratio (A*1101) in [37] amounted to 0.0002.

B27: HPV18 E1 246 peptide … (SEQ ID NO: 3274) (peptide)
peptide: AIFGVNPTI
modifications: not checked
Consider B27, for which, in assay [38], the relative binding ratio (IC50 of standard peptide / IC50 of test peptide) (ratio to standard peptide) was 0.0021.

B28: HPV16 E6 79 … (peptide)
peptide: KISEYRHYCY
modifications: not checked
As to B28, in [18], the binding affinity ratio (IC50 of standard peptide / IC50 of test peptide) was 0.009.

B29: HPV16 E1 peptide … (position 274, 9 amino acids) (peptide)
peptide: VVLLLVRYK
modifications: not checked
As to B29, the relative binding ratio (IC50 of standard peptide / IC50 of test peptide) in assay [34] was 1. The binding affinity ratio (relative to standard peptide) in assay [35] turned out to be 1; in assay [36] it was 0.36. Also, the relative binding ratio (A*1101) in [37] amounted to 0.36.
